From PMC8659110 (2021)
Primed or numbered codes have the meaning given here. Where no end group is shown, it is not given here. Cy5 = Cy5 fluorophore (fluorescent dye); NODAGA′ = chelator

Molecular target: NRP-1 recombinant chimeric protein ( (recombinant human/rat NRP-1 …, UniProt O14786 22-856))
Test: ELISA; competition with biotinylated VEGF-165

NRP-1 recombinant chimeric protein (, sequence (O14786 22-856, change not shown): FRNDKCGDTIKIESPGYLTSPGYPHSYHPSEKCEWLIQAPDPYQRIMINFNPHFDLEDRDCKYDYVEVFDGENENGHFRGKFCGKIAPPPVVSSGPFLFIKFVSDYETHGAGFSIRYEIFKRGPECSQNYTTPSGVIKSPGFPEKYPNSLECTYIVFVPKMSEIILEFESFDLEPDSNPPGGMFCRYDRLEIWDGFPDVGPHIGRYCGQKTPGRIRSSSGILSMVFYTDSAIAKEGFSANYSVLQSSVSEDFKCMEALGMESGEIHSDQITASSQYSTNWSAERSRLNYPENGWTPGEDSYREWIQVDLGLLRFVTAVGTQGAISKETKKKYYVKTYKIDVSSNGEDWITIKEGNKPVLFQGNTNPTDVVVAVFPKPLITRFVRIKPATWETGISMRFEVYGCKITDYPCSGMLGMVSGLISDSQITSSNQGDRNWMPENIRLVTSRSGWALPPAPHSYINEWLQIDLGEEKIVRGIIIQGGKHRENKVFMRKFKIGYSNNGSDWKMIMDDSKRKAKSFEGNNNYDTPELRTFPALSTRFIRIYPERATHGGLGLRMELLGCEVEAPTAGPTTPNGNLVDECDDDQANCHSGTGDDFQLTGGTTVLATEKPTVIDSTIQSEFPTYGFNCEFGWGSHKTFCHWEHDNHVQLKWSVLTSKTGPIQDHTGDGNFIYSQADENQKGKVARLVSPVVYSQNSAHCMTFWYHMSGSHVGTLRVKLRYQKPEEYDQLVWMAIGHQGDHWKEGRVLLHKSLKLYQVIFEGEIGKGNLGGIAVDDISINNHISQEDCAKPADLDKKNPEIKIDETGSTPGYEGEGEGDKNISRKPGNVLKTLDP

Row | Binder | IC50
1 | KDKPPR [KDKPPR peptide] | 2000 nM
2 | {NODAGA′}-K(Cy5)DKPPR (also: NODAGA complexed with natGa) [^natGa-NODAGA-K(Cy5)DKPPR] | 100 nM
